Reference: patent US12099068B2, “Biomarkers for graft-versus-host disease” (Incyte Corporation, priority 2018, dated 2024)

Tested on: plasma proteins
Experiment: Plasma proteins modulated between baseline and day 28 in responders (CR, VGPR, PR; n = 19), Example 6 (Table 13)
Format: in vivo, human
Conditions: plasma protein (OLINK NPX); responders (CR, VGPR, PR; n = 19); itacitinib 200 mg or 300 mg QD with corticosteroids; day 28 vs baseline
Method in brief: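 Longitudinal comparison, day 28 versus baseline, with steroid-naive (N=10) and steroid-refractory (N=18) patients combined. Proteins measured by OLINK proximity extension, log2 normalized protein expression. Differences tested by t tests, ANOVA, Pearson correlation, P<0.05 significant.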

Row | Molecule | Fold Change, Decreased Expression from Baseline to Day 28 | Fold Change, Increased Expression from Baseline to Day 28
1 | MATN3 (protein, UniProt O15232 29-486, looked up) Matrilin-3: DPVARPGFRRLETRGPGGSPGRRPSPAAPDGAPASGTSEPGRARGAGVCKSRPLDLVFIIDSSRSVRPLEFTKVKTFVSRIIDTLDIGPADTRVAVVNYASTVKIEFQLQAYTDKQSLKQAVGRITPLSTGTMSGLAIQTAMDEAFTVEAGAREPSSNIPKVAIIVTDGRPQDQVNEVAARAQASGIELYAVGVDRADMASLKMMASEPLEEHVFYVETYGVIEKLSSRFQETFCALDPCVLGTHQCQHVCISDGEGKHHCECSQGYTLNADKKTCSALDRCALNTHGCEHICVNDRSGSYHCECYEGYTLNEDRKTCSAQDKCALGTHGCQHICVNDRTGSHHCECYEGYTLNADKKTCSVRDKCALGSHGCQHICVSDGAASYHCDCYPGYTLNEDKKTCSATEEARRLVSTEDACGCEATLAFQDKVSSYLQRLNTKLDDILEKLKINEYGQIHR | −1.3384 | –
2 | CNTNAP2 (protein, UniProt Q9UHC6 28-1331, looked up) Contactin-associated …: APSTSQKCDEPLVSGLPHVAFSSSSSISGSYSPGYAKINKRGGAGGWSPSDSDHYQWLQVDFGNRKQISAIATQGRYSSSDWVTQYRMLYSDTGRNWKPYHQDGNIWAFPGNINSDGVVRHELQHPIIARYVRIVPLDWNGEGRIGLRIEVYGCSYWADVINFDGHVVLPYRFRNKKMKTLKDVIALNFKTSESEGVILHGEGQQGDYITLELKKAKLVLSLNLGSNQLGPIYGHTSVMTGSLLDDHHWHSVVIERQGRSINLTLDRSMQHFRTNGEFDYLDLDYEITFGGIPFSGKPSSSSRKNFKGCMESINYNGVNITDLARRKKLEPSNVGNLSFSCVEPYTVPVFFNATSYLEVPGRLNQDLFSVSFQFRTWNPNGLLVFSHFADNLGNVEIDLTESKVGVHINITQTKMSQIDISSGSGLNDGQWHEVRFLAKENFAILTIDGDEASAVRTNSPLQVKTGEKYFFGGFLNQMNNSSHSVLQPSFQGCMQLIQVDDQLVNLYEVAQRKPGSFANVSIDMCAIIDRCVPNHCEHGGKCSQTWDSFKCTCDETGYSGATCHNSIYEPSCEAYKHLGQTSNYYWIDPDGSGPLGPLKVYCNMTEDKVWTIVSHDLQMQTPVVGYNPEKYSVTQLVYSASMDQISAITDSAEYCEQYVSYFCKMSRLLNTPDGSPYTWWVGKANEKHYYWGGSGPGIQKCACGIERNCTDPKYYCNCDADYKQWRKDAGFLSYKDHLPVSQVVVGDTDRQGSEAKLSVGPLRCQGDRNYWNAASFPNPSSYLHFSTFQGETSADISFYFKTLTPWGVFLENMGKEDFIKLELKSATEVSFSFDVGNGPVEIVVRSPTPLNDDQWHRVTAERNVKQASLQVDRLPQQIRKAPTEGHTRLELYSQLFVGGAGGQQGFLGCIRSLRMNGVTLDLEERAKVTSGFISGCSGHCTSYGTNCENGGKCLERYHGYSCDCSNTAYDGTFCNKDVGAFFEEGMWLRYNFQAPATNARDSSSRVDNAPDQQNSHPDLAQEEIRFSFSTTKAPCILLYISSFTTDFLAVLVKPTGSLQIRYNLGGTREPYNIDVDHRNMANGQPHSVNITRHEKTIFLKLDHYPSVSYHLPSSSDTLFNSPKSLFLGKVIETGKIDQEIHKYNTPGFTGCLSRVQFNQIAPLKAALRQTNASAHVHIQGELVESNCGASPLTLSPMSSATDPWHLDHLDSASADFPYNPGQGQAIRNGVNRNSAIIGGVIAVVIFTILCTLVFLIRYMFRHKGTYHTNEAKGAESAESADAAIMNNDPNFTETIDESKKEWLI | −1.3091 | –
3 | CPM (protein, UniProt P14384 18-423, looked up) Carboxypeptidase M: LDFNYHRQEGMEAFLKTVAQNYSSVTHLHSIGKSVKGRNLWVLVVGRFPKEHRIGIPEFKYVANMHGDETVGRELLLHLIDYLVTSDGKDPEITNLINSTRIHIMPSMNPDGFEAVKKPDCYYSIGRENYNQYDLNRNFPDAFEYNNVSRQPETVAVMKWLKTETFVLSANLHGGALVASYPFDNGVQATGALYSRSLTPDDDVFQYLAHTYASRNPNMKKGDECKNKMNFPNGVTNGYSWYPLQGGMQDYNYIWAQCFEITLELSCCKYPREEKLPSFWNNNKASLIEYIKQVHLGVKGQVFDQNGNPLPNVIVEVQDRKHICPYRTNKYGEYYLLLLPGSYIINVTVPGHDPHITKVIIPEKSQNFSALKKDILLPFQGQLDSIPVSNPSCPMIPLYRNLPDHS | – | 1.1479
4 | VWC2 (protein, UniProt Q2TAL6 28-325, looked up) Brorin: SPSIPLEKLAQAPEQPGQEKREHASRDGPGRVNELGRPARDEGGSGRDWKSKSGRGLAGREPWSKLKQAWVSQGGGAKAGDLQVRPRGDTPQAEALAAAAQDAIGPELAPTPEPPEEYVYPDYRGKGCVDESGFVYAIGEKFAPGPSACPCLCTEEGPLCAQPECPRLHPRCIHVDTSQCCPQCKERKNYCEFRGKTYQTLEEFVVSPCERCRCEANGEVLCTVSACPQTECVDPVYEPDQCCPICKNGPNCFAETAVIPAGREVKTDECTICHCTYEEGTWRIERQAMCTRHECRQM | – | 1.3331
5 | TXLNA (protein, UniProt P40222 1-546, looked up) Alpha-taxilin: MKNQDKKNGAAKQSNPKSSPGQPEAGPEGAQERPSQAAPAVEAEGPGSSQAPRKPEGAQARTAQSGALRDVSEELSRQLEDILSTYCVDNNQGGPGEDGAQGEPAEPEDAEKSRTYVARNGEPEPTPVVNGEKEPSKGDPNTEEIRQSDEVGDRDHRRPQEKKKAKGLGKEITLLMQTLNTLSTPEEKLAALCKKYAELLEEHRNSQKQMKLLQKKQSQLVQEKDHLRGEHSKAVLARSKLESLCRELQRHNRSLKEEGVQRAREEEEKRKEVTSHFQVTLNDIQLQMEQHNERNSKLRQENMELAERLKKLIEQYELREEHIDKVFKHKDLQQQLVDAKLQQAQEMLKEAEERHQREKDFLLKEAVESQRMCELMKQQETHLKQQLALYTEKFEEFQNTLSKSSEVFTTFKQEMEKMTKKIKKLEKETTMYRSRWESSNKALLEMAEEKTVRDKELEGLQVKIQRLEKLCRALQTERNDLNKRVQDLSAGGQGSLTDSGPERRPEGPGAQAPSSPRVTEAPCYPGAPSTEASGQTGPQEPTSARA | −1.5277 | –
6 | MEPE (protein, UniProt Q9NQ76 18-525, looked up) Matrix extracellular …: PTFQPQTEKTKQSCVEEQRQEEKNKDNIGFHHLGKRINQELSSKENIVQERKKDLSLSEASENKGSSKSQNYFTNRQRLNKEYSISNKENTHNGLRMSIYPKSTGNKGFEDGDDAISKLHDQEEYGAALIRNNMQHIMGPVTAIKLLGEENKENTPRNVLNIIPASMNYAKAHSKDKKKPQRDSQAQKSPVKSKSTHRIQHNIDYLKHLSKVKKIPSDFEGSGYTDLQERGDNDISPFSGDGQPFKDIPGKGEATGPDLEGKDIQTGFAGPSEAESTHLDTKKPGYNEIPEREENGGNTIGTRDETAKEADAVDVSLVEGSNDIMGSTNFKELPGREGNRVDAGSQNAHQGKVEFHYPPAPSKEKRKEGSSDAAESTNYNEIPKNGKGSTRKGVDHSNRNQATLNEKQRFPSKGKSQGLPIPSRGLDNEIKNEMDSFNGPSHENIITHGRKYHYVPHRQNNSTRNKGMPQGKGSWGRQPHSNRRFSSRRRDDSSESSDSGSSSESDGD | −1.4941 | –
7 | PAM (protein, UniProt P19021 31-973, looked up) Peptidyl-glycine …: FKETTRPFSNECLGTTRPVVPIDSSDFALDIRMPGVTPKQSDTYFCMSMRIPVDEEAFVIDFKPRASMDTVHHMLLFGCNMPSSTGSYWFCDEGTCTDKANILYAWARNAPPTRLPKGVGFRVGGETGSKYFVLQVHYGDISAFRDNNKDCSGVSLHLTRLPQPLIAGMYLMMSVDTVIPAGEKVVNSDISCHYKNYPMHVFAYRVHTHHLGKVVSGYRVRNGQWTLIGRQSPQLPQAFYPVGHPVDVSFGDLLAARCVFTGEGRTEATHIGGTSSDEMCNLYIMYYMEAKHAVSFMTCTQNVAPDMFRTIPPEANIPIPVKSDMVMMHEHHKETEYKDKIPLLQQPKREEEEVLDQGDFYSLLSKLLGEREDVVHVHKYNPTEKAESESDLVAEIANVVQKKDLGRSDAREGAEHERGNAILVRDRIHKFHRLVSTLRPPESRVFSLQQPPPGEGTWEPEHTGDFHMEEALDWPGVYLLPGQVSGVALDPKNNLVIFHRGDHVWDGNSFDSKFVYQQIGLGPIEEDTILVIDPNNAAVLQSSGKNLFYLPHGLSIDKDGNYWVTDVALHQVFKLDPNNKEGPVLILGRSMQPGSDQNHFCQPTDVAVDPGTGAIYVSDGYCNSRIVQFSPSGKFITQWGEESSGSSPLPGQFTVPHSLALVPLLGQLCVADRENGRIQCFKTDTKEFVREIKHSSFGRNVFAISYIPGLLFAVNGKPHFGDQEPVQGFVMNFSNGEIIDIFKPVRKHFDMPHDIVASEDGTVYIGDAHTNTVWKFTLTEKLEHRSVKKAGIEVQEIKEAEAVVETKMENKPTSSELQKMQEKQKLIKEPGSGVPVVLITTLLVIPVVVLLAIAIFIRWKKSRAFGDSEHKLETSSGRVLGRFRGKGSGGLNLGNFFASRKGYSRKGFDRLSTEGSDQEKEDDGSESEEEYSAPLPALAPSSS | – | 1.1653
8 | BACH1 (protein, UniProt O14867 1-736, looked up) Transcription regulator …: MSLSENSVFAYESSVHSTNVLLSLNDQRKKDVLCDVTIFVEGQRFRAHRSVLAACSSYFHSRIVGQADGELNITLPEEVTVKGFEPLIQFAYTAKLILSKENVDEVCKCVEFLSVHNIEESCFQFLKFKFLDSTADQQECPRKKCFSSHCQKTDLKLSLLDQRDLETDEVEEFLENKNVQTPQCKLRRYQGNAKASPPLQDSASQTYESMCLEKDAALALPSLCPKYRKFQKAFGTDRVRTGESSVKDIHASVQPNERSENECLGGVPECRDLQVMLKCDESKLAMEPEETKKDPASQCPTEKSEVTPFPHNSSIDPHGLYSLSLLHTYDQYGDLNFAGMQNTTVLTEKPLSGTDVQEKTFGESQDLPLKSDLGTREDSSVASSDRSSVEREVAEHLAKGFWSDICSTDTPCQMQLSPAVAKDGSEQISQKRSECPWLGIRISESPEPGQRTFTTLSSVNCPFISTLSTEGCSSNLEIGNDDYVSEPQQEPCPYACVISLGDDSETDTEGDSESCSAREQECEVKLPFNAQRIISLSRNDFQSLLKMHKLTPEQLDCIHDIRRRSKNRIAAQRCRKRKLDCIQNLESEIEKLQSEKESLLKERDHILSTLGETKQNLTGLCQKVCKEAALSQEQIQILAKYSAADCPLSFLISEKDKSTPDGELALPSIFSLSDRPPAVLPPCARGNSEPGYARGQESQQMSTATSEQAGPAEQCRQSGGISDFCQQMTDKCTTDE | −1.4794 | –
9 | PVR (protein, UniProt P15151 21-417, looked up) Poliovirus receptor: WPPPGTGDVVVQAPTQVPGFLGDSVTLPCYLQVPNMEVTHVSQLTWARHGESGSMAVFHQTQGPSYSESKRLEFVAARLGAELRNASLRMFGLRVEDEGNYTCLFVTFPQGSRSVDIWLRVLAKPQNTAEVQKVQLTGEPVPMARCVSTGGRPPAQITWHSDLGGMPNTSQVPGFLSGTVTVTSLWILVPSSQVDGKNVTCKVEHESFEKPQLLTVNLTVYYPPEVSISGYDNNWYLGQNEATLTCDARSNPEPTGYNWSTTMGPLPPFAVAQGAQLLIRPVDKPINTTLICNVTNALGARQAELTVQVKEGPPSEHSGISRNAIIFLVLGILVFLILLGIGIYFYWSKCSREVLWHCHLCPSSTEHASASANGHVSYSAVSRENSSSQDPQTEGTR | – | 1.1964
